The Kd is the constant that tells how readily two partners part at equilibrium.

Our source for the Kd values is article PMC10359466, “Identification of a small-molecule inhibitor that selectively blocks DNA-binding by Trypanosoma brucei replication protein A1” (Nature Communications, 2023).

Series [1] deals with ATRIP peptide (Homo sapiens) (UniProt Q8WXE1). The note with it: cited from earlier work.
For series [2] the target is unchanged. The note with it: cited from earlier work. The source holds these as a separate data set.
The target of series [3] is T1, TbRPA1 DBD-AB (Trypanosoma brucei) (UniProt Q384B5).
T1 sequence: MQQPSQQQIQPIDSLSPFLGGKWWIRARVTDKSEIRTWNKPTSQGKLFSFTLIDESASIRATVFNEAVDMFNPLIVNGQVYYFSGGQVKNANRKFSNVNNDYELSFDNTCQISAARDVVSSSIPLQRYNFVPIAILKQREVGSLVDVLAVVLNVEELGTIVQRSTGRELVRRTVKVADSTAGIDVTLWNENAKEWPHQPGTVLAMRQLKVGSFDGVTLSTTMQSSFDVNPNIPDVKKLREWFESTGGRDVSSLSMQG
As to the kind of experiment: MST. The conditions noted are these: 20 mM Tris pH 7.5, 10 mM NaCl, 10 mM MgCl2, 2 mM DTT, 10% glycerol, 0.1 mg/ml BSA, 15 min, room temperature; EMSA 2 nM probe (gel at 4 C), MST 10 nM probe.

In series [4] the target is TbRPA complex: 6xHis-RPA1;TbRPA2;TbRPA3 (Trypanosoma brucei;Trypanosoma brucei;Trypanosoma brucei) (UniProt Q384B5). Put plainly: MST. The note with it: 20 mM Tris pH 7.5, 10 mM NaCl, 10 mM MgCl2, 2 mM DTT, 10% glycerol, 0.1 mg/ml BSA, 15 min, room temperature, EMSA 2 nM probe (gel at 4 C), MST 10 nM probe. For orientation: A gel shift assay detects complexes by their altered migration in electrophoresis.

Read-outs that look alike come from different tables or passages of the source.

Sequence of ATRIP peptide (Homo sapiens) (Q8WXE1 whole entry): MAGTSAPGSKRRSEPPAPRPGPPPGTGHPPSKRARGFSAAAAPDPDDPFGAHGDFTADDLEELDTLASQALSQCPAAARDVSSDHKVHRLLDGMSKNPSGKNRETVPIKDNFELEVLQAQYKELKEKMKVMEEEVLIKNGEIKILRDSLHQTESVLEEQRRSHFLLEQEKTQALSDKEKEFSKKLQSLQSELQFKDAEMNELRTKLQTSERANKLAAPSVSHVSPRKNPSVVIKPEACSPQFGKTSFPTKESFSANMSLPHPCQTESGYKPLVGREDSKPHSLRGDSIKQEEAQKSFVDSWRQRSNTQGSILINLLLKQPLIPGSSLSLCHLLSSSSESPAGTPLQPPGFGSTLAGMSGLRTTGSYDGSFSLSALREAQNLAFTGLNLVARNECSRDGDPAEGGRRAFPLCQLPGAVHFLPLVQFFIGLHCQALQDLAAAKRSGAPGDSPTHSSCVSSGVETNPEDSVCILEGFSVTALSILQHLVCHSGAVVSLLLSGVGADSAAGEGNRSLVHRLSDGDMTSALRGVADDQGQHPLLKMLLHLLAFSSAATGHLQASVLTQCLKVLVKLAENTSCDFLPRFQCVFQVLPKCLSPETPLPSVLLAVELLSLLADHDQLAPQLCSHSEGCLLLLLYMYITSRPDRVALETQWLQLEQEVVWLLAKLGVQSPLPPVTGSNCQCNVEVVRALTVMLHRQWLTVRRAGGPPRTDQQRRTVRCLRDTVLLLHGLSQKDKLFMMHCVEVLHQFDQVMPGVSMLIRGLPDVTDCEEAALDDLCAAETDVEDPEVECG
Sequence of RPA1 DBD-AB DBD-AB (P27694 181-422): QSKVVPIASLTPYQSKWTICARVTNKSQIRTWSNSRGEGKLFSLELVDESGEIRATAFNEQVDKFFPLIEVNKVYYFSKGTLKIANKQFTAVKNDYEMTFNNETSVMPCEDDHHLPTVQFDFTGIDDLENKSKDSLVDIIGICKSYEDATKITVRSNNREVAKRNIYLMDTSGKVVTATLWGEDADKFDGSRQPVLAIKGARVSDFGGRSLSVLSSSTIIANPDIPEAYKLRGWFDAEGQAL
Sequence of RPA1 DBD-F DBD-F (P27694 1-120): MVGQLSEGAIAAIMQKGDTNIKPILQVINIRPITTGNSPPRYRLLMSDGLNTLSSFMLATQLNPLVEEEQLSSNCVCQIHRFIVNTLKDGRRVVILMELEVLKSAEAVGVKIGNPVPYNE

As for “RPA1 DBD-AB DBD-AB (from UniProt P27694)”, the Kd in series [1] was 12000 nM. Take RPA1 DBD-F DBD-F (from UniProt P27694): the Kd in series [2] is 7400 nM.

Regarding TTTTTTTTTTTT [dT12], the Kd in series [3] amounted to 60.5 nM.

Substance TTTTTTTTTTTTTTTTTTTT [dT20] yielded a dissociation constant Kd in series [4] (17.2 nM in peer review file) of 17 nM.

Consider TTTTTTTTTTTTTTTTTTTTTTTTTTTTTTTT [dT32], for which the Kd came to 13.2 nM in series [4] and 15.5 nM in series [4] (second measurement, with S105T / length series).
